We go through one substance from paper PMC3087300 (Bioorganic & medicinal chemistry, 2009).

The experiment has as its target PSA (Homo sapiens, UniProt P07288).

Where two headings read alike, the source gives them in different places.

PSA, sequence (P07288 25-261): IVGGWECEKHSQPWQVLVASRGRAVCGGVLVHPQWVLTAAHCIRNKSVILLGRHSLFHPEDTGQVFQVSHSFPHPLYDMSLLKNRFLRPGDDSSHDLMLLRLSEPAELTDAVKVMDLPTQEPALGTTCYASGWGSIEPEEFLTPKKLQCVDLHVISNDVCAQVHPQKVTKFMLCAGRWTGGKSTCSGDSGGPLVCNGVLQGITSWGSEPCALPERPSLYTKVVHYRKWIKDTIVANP

In general, Ki refers to the equilibrium dissociation constant of an inhibitor or competing ligand from its target. Consider (Re) SAAC-SSQn(boro)L [Compound 47], for which the Ki came out at 28.4 ± 2.1 nM (P2-P3 screen boronic acids and PSA imaging agents, Table 2); 28 nM (read-out: Ki for PSA, boronic acid inhibitors).
